# In patent US20120288506A1 (Eli Lilly, published 2012):
# T1: recombinant mouse c-Kit (rm-c-Kit; Gln26-Thr519) (R&D Systems) (mouse, UniProt P05532 26-519)
# T1 construct: also called mouse c-Kit (1.0 ug/ml)
# T1 sequence (looked up): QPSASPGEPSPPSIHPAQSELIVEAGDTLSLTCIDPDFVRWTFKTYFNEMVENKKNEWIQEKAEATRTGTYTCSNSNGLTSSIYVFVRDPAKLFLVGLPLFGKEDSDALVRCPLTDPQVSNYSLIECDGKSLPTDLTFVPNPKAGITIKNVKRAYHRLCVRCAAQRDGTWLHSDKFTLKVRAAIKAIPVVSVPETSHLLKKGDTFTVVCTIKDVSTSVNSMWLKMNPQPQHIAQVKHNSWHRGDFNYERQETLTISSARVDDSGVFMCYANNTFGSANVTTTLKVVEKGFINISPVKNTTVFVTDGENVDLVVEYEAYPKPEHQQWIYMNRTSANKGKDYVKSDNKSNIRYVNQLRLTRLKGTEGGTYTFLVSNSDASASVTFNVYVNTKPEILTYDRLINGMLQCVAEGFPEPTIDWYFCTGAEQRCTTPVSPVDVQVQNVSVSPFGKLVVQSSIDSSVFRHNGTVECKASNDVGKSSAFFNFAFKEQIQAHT
# B1: anti-human c-Kit monoclonal antibody CK6 (antibody, human IgG1, kappa, V domains shown)
# VH: QVQLVQSGAAVKKPGESLKISCKGSGYRFTSYWIGWVRQMPGKGLEWMGIIYPGDSDTRYSPSFQGQVTISAGKSISTAYLQWSSLKASDTAMYYCARHGRGYNGYEGAFDIWGQGTMVTVSS
# VL: AIQLTQSPSSLSASVGDRVTITCRASQGISSALAWYQQKPGKAPKLLIYDASSLESGVPSRFSGSGSGTDFTLTISSLQPEDFATYYCQQFNSYPLTFGGGTKVEIKR
# notes: also called mAb CK6; anti-c-Kit mAb CK6
# Assays:
# [1] = biological target: plasma membrane bound human c-Kit expressed by human tumor cells (Mo7e; also Malm-3M) (human, UniProt P10721 26-976); experiment: cell-based or functional assay
# Chain of plasma membrane bound human c-Kit expressed by human tumor cells (Mo7e; also Malm-3M) (P10721 26-976): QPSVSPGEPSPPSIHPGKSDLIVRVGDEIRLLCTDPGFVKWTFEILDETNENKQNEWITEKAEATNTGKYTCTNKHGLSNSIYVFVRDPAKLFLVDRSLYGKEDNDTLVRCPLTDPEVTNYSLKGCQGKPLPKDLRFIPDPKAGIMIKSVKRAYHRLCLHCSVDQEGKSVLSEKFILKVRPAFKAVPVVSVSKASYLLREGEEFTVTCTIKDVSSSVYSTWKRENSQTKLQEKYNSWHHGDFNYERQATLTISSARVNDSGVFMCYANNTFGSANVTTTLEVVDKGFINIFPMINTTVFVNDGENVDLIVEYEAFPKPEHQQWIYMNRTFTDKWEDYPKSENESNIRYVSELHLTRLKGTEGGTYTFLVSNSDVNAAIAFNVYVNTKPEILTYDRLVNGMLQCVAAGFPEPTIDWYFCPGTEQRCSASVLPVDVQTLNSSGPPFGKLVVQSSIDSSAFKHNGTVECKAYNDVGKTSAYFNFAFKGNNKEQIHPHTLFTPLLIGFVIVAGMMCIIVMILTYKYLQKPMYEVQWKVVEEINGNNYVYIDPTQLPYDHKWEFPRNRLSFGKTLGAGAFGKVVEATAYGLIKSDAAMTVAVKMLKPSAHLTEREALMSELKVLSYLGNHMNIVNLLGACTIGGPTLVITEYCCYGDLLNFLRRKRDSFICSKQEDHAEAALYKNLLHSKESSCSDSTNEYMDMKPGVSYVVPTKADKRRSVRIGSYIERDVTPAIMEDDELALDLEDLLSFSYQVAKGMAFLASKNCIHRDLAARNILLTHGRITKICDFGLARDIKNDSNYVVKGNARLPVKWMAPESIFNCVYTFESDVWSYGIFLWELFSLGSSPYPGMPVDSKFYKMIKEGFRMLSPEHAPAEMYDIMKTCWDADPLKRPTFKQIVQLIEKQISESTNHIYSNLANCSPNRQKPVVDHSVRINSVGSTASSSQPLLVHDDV
# [2] = biological target: T2, plasma membrane bound mouse (p815) c-Kit expressed by mouse tumor cells (p815) (mouse, UniProt P05532 25-979); experiment: flow cytometry on whole live P815 cells
# T2 construct: whole, on cells; also called c-Kit on P815 cells
# T2 sequence (P05532 25-979): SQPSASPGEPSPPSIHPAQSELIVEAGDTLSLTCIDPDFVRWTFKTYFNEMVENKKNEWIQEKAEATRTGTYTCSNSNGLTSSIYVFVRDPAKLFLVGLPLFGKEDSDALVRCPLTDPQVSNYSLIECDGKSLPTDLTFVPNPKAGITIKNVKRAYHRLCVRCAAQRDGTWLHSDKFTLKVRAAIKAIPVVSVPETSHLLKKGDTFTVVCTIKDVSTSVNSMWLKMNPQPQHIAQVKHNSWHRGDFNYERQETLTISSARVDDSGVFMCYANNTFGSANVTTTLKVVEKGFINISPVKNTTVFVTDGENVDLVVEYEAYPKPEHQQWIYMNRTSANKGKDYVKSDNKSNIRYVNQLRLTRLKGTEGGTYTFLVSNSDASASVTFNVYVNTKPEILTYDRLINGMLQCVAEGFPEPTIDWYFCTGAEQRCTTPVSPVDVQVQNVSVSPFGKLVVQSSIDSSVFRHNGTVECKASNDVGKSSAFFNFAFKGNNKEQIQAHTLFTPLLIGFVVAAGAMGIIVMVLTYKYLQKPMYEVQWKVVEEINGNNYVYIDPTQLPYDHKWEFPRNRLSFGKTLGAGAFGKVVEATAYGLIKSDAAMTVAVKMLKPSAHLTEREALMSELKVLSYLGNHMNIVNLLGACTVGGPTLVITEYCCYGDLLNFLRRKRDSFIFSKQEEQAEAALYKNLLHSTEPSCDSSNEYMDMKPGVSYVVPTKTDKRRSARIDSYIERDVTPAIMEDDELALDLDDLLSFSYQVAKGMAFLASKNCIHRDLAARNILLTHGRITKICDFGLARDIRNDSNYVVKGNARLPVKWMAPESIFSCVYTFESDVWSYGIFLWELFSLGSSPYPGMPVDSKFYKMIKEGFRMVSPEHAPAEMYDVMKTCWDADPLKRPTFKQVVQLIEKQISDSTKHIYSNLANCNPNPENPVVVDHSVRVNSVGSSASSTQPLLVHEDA
# Method: Species specificity of c-Kit mAbs can be further tested for their binding to plasma membrane bound c-Kit expressed on the surface of human Mo7e and mouse P815 cells based on the flow cytometry analysis (see, e.g., WO2004/007735). Briefly, whole, live human Mo7e and mouse P815 cells are serum starved overnight, washed 3 times in cold blocking buffer (5% FBS in PBS), and then resuspended in 100 μl of blocking buffer. An anti-c-Kit antibody is added at 1.0 μg/ml and the mixture is incubated for 30 minutes at 4° C. A secondary fluorescence-conjugated antibody (Jackson ImmunoResearch) is added at 1.0 μg/ml to detect human antibody bound to the cell surface via flow cytometry analysis.
# [3] = biological target: T1, recombinant mouse c-Kit (rm-c-Kit; …); experiment: ELISA, plate coated with rm-c-Kit 1 ug/ml
# Method: (§1) The species binding specificity of anti-human c-Kit mAbs can be determined by measuring the reactivity of the antibodies to human, cynomolgus, and mouse c-Kit proteins in an ELISA. […] Following washes, wells are blocked with 3% PBS/milk. Serial dilutions of human anti-human-c-Kit mAbs are then added to the c-Kit-coated wells and allowed to incubate for two hours at room temperature. Following several washes, a 1:1000 dilution of anti-human IgG-HRP conjugated antibody is added to the plates for one hour at room temperature in order to detect bound human antibody. Plates are washed and HRP substrate is added to each well and incubated until blue color is developed. Stop solution is added and absorbance is measured at 450 nm.
# [4] = biological target: T3, cynomolgus c-Kit (cyno-c-Kit; Met1-His549 prepared recombinantly) (cynomolgus); experiment: ELISA, plate coated with cyno-c-Kit 1 ug/ml
# T3 construct: The printed range starts at Met1, so it includes the signal peptide of the expressed construct; also called cynomologus c-Kit; cynomolgus c-Kit (1.0 ug/ml)
# Method: as §1
# [5] = biological target: T4, recombinant human c-Kit (rh-c-Kit) protein (R&D Systems) (human, UniProt P10721 26-520, limits assumed); experiment: SPR (BIAcore), rh-c-kit immobilized on CM5 chip, 25 C
# T4 construct: also called human c-Kit protein; human c-Kit (1.0 ug/ml)
# T4 sequence (P10721 26-520 limits assumed): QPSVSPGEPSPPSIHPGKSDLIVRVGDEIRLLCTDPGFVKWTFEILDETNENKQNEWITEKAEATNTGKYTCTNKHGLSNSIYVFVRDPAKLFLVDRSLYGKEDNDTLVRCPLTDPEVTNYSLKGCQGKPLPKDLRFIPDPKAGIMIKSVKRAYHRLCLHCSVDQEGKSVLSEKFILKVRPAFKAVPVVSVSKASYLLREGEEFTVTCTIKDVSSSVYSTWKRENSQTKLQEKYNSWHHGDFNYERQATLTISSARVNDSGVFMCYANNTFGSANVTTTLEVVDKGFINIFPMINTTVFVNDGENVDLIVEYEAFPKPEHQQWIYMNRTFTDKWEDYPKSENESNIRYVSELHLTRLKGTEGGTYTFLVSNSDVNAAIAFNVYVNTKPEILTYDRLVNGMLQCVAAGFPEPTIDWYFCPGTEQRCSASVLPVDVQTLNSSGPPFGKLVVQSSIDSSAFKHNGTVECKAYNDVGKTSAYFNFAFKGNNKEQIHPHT
# [6] = biological target: T4, recombinant human c-Kit (rh-c-Kit) …; experiment: ELISA, plate coated with rh-c-Kit 1 ug/ml, anti-human IgG-HRP detection
# Method: Following washes, wells are blocked with 3% PBS/milk. […] Plates are washed and HRP substrate is added to each well and incubated until blue color is developed. Stop solution is added and absorbance is measured at 450 nm.
# [7] = biological target: T4, recombinant human c-Kit (rh-c-Kit) …; experiment: blocking ELISA: CK6 pre-incubated with rh-c-Kit, added to SCF-coated wells
# Method: Purified mAbs can be also tested for their ability to block the binding of c-Kit and its ligand. […] Following washes, wells are blocked with 3% PBS/milk. […] Following several washes (3-5), a 1:1000 dilution of anti-human IgG-HRP conjugated antibody is added to the plates for one hour at room temperature. Plates are washed in 0.2% Tween-PBS and HRP substrate is added to each well and incubated until blue color is developed. Stop solution is added and absorbance is measured at 450 nm.
binder,measurement,setting,value
B1,"IC50 of inhibition of c-Kit and MAPK phosphorylation in response to SCF in Mo7e ('Mole') leukemia cells, western blot",[1],0.3 nM
same,binding result,[2],no binding (tested: 1.0 µg/ml)
same,binding result,[3],no binding
same,EC50,[4],0.057 nM
same,Kd,[5],0.066 nM
same,EC50,[6],~0.03 nM
same,IC50,[7],~0.04 nM
